Test results taken from the nanobody polyreactivity screen of Harvey et al. (2022).

Experiment: yeast display, Sf9 membrane polyspecificity reagent, FACS + sequencing; frameworks hold sequencing errors
Method in brief: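 Genes from sorted yeast were amplified by colony PCR, read by MiSeq 2 × 250 sequencing and filtered on CDR length. These cells carried a synthetic nanobody library in Saccharomyces cerevisiae BJ5465 and were sorted by FACS into low and high (top ~1%) gates on anti-HA and streptavidin fluorescence. Polyreactivity is labelled according to the gate of origin.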

Row | Sequence | polyreactivity (PSR sort gate)
1 | QVQLVESGGGLVQAGGSLRLSCAASGFNYSNAMGWYRQAPGKERELVAAITSRGGSTYYADSVKGRFTISRDNAKNTVYLQMNSLKPEDTAVYYCATKVWTRFIYYYWGQGTQVTVSS | high polyreactivity
2 | QVQLVESGGGLVQAGGSLRLSCAASGFSFEGYAMGWYRQAPGKERELVAAISSNGGRTYYADSVKGRFTISRDNAKNTVYVLMNSLKPEDTAVYYCNARRAYSGPDYDYYHGRRYDYWGQGTQVSVSS | low polyreactivity
3 | QVQLVESGGGLVQAGGSLRLSCAASGFSFTNYAMGWYRQAPGKERELVAAINRSGGRTYYADSVKGRFTISRDNAKNTVYLQMNSLKPEDTAVYYCAAYGRYYYIYDYWGQGTQVTVSS | high polyreactivity
4 | QVQLVESGGGLVQAGGSLRLSCAASGFTCTSNAMGWYRQAPGKERELVAAITFTGGRTYYADSVKGRFTISRDNAKNTVYLQMNSLKPEDTAVYYCNRVTAYYPTKFDYWGQGTQVTVSS | high polyreactivity
5 | QVQLVESGGGLVQAGGSLRLSCAASGFTFAFYTMGWYRQAPGKERELVAGITRSGTNTYYADSVKGRFTISRDNSKNTVYLQMNSLKPEDTSVYYCNADPRTGWYKYDYWGQGTQVTVSS | high polyreactivity
6 | QVQLVESGGGLVQAGGSLRLSCAASGFTFAGNAMGWDRPAPGKERELVAGISRRGGNTYYADSVKGRFTISRDTAKNTVYLQMNRLKPEDTAVYYCARYSSSYWGQGTQVTVSS | high polyreactivity
7 | QVQLVESGGGLVQAGGSLRLSCAASGFTFAGNTMGWYRQAPGKERELVAAINSGGSTHYADSVKGRFTISRDNAKNTVYLQMNSLKPEDTAVYYCADYLTRYGAYYWGQGTQVTVSS | high polyreactivity
8 | QVQLVESGGGLVQAGGSLRLSCAASGFTFAHNAMGWYRQATGKERELVAVISWSGGRTYYADSVKGRFTISRDNAMNTVYLQMNSLKPEDTAVYYCATRHSKFSYGYWGQGTQVTVSS | high polyreactivity
9 | QVQLVESGGGLVQAGGSLRLSCAASGFTFAPNAMGWYRQAHGKERELVAAISSASSTYYADSVKGRFTISRDNAKNTVYLQMNSLKPEDTAVYYCAAREGWGFYYWGQGTQGTVSS | high polyreactivity
10 | QVQLVESGGGLVQAGGSLRLSCAASGFTFAPYAMGWYRQAPGKERELVAAISSNGGSTYYADSVKGRFTISRDNAKNTVYLQMNSLKPGDTAVYYCAAPVRQSSYNRYDSWGQGTQVTVSS | high polyreactivity
11 | QVQLVESGGGLVQAGGSLRLSCAASGFTFAQYTMGWYRPAPGKERELVAAIRVGGGSTYYADSVKGRFTISRDNAKNTVYLQMNSLKPEDTAVYYCAKRTYSRKFRGAYNYWGQGTQVTVSS | high polyreactivity
12 | QVQLVESGGGLVQAGGSLRLSCAASGFTFARYAMGWYRQAPGKERELVAAISWSGARTYYADSVKGRFTISRDNAKNTVYLQMNSLKPEDTAVYYCNAVSGSSNFDYWGQGTQVTVSS | high polyreactivity
13 | QVQLVESGGGLVQAGGSLRLSCAASGFTFASNAMGWYRQAPGKERELVAAITWGTGTTSYADSVKGRFTISRDYAKNTVYLQMNSLKPEDTAVYYCNARVGPELHDYWGQGTQVTVSS | low polyreactivity
14 | QVQLVESGGGLVQAGGSLRLSCAASGFTFASNAMGWYRQAPGKERELVADITNTGSTYYADSVKGRFTISRDNAKNTVYLQMNSLKPEDTAVYYCAARSRDVTDGQRISAPHGYWGQGTQVTVSS | low polyreactivity
15 | QVQLVESGGGLVQAGGSLRLSCAASGFTFASYAMGWYRQAPGKERELVAAITRRGGSTNYADSVKGRFTISRDNAKNTVFLQMISLKPEDTAVYYCNDLHGVWDPAYDYWGQGTQVTVSS | low polyreactivity
16 | QVQLVESGGGLVQAGGSLRLSCAASGFTFASYVMGWYRQAPGKERELVASISWSGGRTYYADSVKGRFTISRDNAKNTVYLQMNSLKPEDTAVYYCNVLVTRYSPWFLYNYWGLGTQVTVSS | high polyreactivity
17 | QVQLVESGGGLVQAGGSLRLSCAASGFTFAVNVMGWYIHAPGKEREFDAAISWTGGSTDYADSVKGRFTISLDNAKNTVYLQMNSLKPEDTAVYYCAADYNLRLQPFRKLVGPAGGYWGQGTQLTVSS | low polyreactivity
18 | QVQLVESGGGLVQAGGSLRLSCAASGFTFAVYAMGWYRQAPGKERELVAAISRSGTRTYYADSVKGRFTISRDNAKNTVYLQMNSMKPEDTAVYYCAADKYRHGYDYWGQGTQVTVSS | low polyreactivity
19 | QVQLVESGGGLVQAGGSLRLSCAASGFTFAWNAMGWYRQAPGKERELVATIDVSGGSTYYADSVKGRFTISRDNAKNTVYLQMNILKPEDTAVYYCAADELPEGGYDYWGHGTQVTVSS | low polyreactivity
20 | QVQLVESGGGLVQAGGSLRLSCAASGFTFAYYAMGWYRQAPGKERELVAAISYSGGSTYYADSVKGRFTISRDNAKNTVYLQMNSLKPVDTAVYYCAAEAGRRYNWGYDYWGQGTQVTVSS | high polyreactivity
21 | QVQLVESGGGLVQAGGSLRLSCAASGFTFAYYAMGWYRQAPGKERELVAAITRGGGRTFYADSVKGRFTISRDNAKNTVYLQMNSLKPEDTAVYYCAAVKDTTNSRGYGYWGQGTQVTVSS | high polyreactivity

Row | Sequence | polyreactivity (PSR sort gate)
22 | QVQLVESGGGLVQAGGSLRLSCAASGFTFAYYAMGWYRQAPGKERELVADISSGGSTDYADSVKGRFTISRDNAKNTVYLQMNSLKPEDTAVYYCNAVVVRLWYDYDYWGQGTQVTVSS | low polyreactivity
23 | QVQLVESGGGLVQAGGSLRLSCAASGFTFAYYAMGWYRQAPGKERELVASISYNGGITNYADSVKGRFTISRDNAKNTVYLQMNSLKPEDTSVYYCNAVPHYYWRFDYWGQGTQVTVSS | low polyreactivity
24 | QVQLVESGGGLVQAGGSLRLSCAASGFTFAYYAMGWYRQAPGKERELVATITSGGRTYYADSVKGRFTISRDNAKNTVYLQMNSLKPEDTAVYYCAAAGKGRYHFRSTMDYWGQGTQVTVSS | high polyreactivity
25 | QVQLVESGGGLVQAGGSLRLSCAASGFTFAYYTMGWYRQAPGKERELVAAISWSGSSTYYADSVKGRFTISRDNAKNTVYLQMNSLKPEDTAVYYCAAKGWYVQHFKRGLYNYWGQGTQVTVSS | high polyreactivity
26 | QVQLVESGGGLVQAGGSLRLSCAASGFTFDANAIGWYRQAPGKERELVAAISSSGGSTYYADSVKGRFTISRDNAKNTVYLQMNSLKPEDTAVYYCAADLAPGRHDYWGQGTQVTVSS | high polyreactivity
27 | QVQLVESGGGLVQAGGSLRLSCAASGFTFDANAMGWYRQAPGKERELVAAINWSGGSTYYADSVKGRFTISRDNAKYTVYLQMNSLKPEDTAVYYCAAELWGLFDYWGQGTQVTVSS | low polyreactivity
28 | QVQLVESGGGLVQAGGSLRLSCAASGFTFDAYDMGWYRQAPGKERELVASITGGGSTYYADSVKGRFTISRDNAKNTVYLQMNSLKPEDTAVYYCAADLYFEGYNRYYHISGFDYWGQGTQVTVSS | low polyreactivity
29 | QVQLVESGGGLVQAGGSLRLSCAASGFTFDDYTMGWYRPAPGKEREFVAAISSSGGSTYYADSVKGRFTISRDNAKNTVYLQMNSLKPVDTAVYYCAADARYYDYYEYDYWGQGTQVTVSS | high polyreactivity
30 | QVQLVESGGGLVQAGGSLRLSCAASGFTFDFYAMGWYRQAPGKERELVAAISRRGGRTSYADSVKGRFTISRDNAKNTVYLQMNSLKPEDTAVYYCAAASLGGDGLVAYYYWGQGTQVTVSS | high polyreactivity
31 | QVQLVESGGGLVQAGGSLRLSCAASGFTFDFYVMGWYRQAPGKERELVAAISWDGGTTYYADSVKGRFTISRDNAKNTVYLQMNSLKPEDTAVYYCAADDWVYVPTGAWYLYEYWGQGTQVTVSS | high polyreactivity
32 | QVQLVESGGGLVQAGGSLRLSCAASGFTFDGYAMGWDRQAPGKERELVAAISGGGSTYYADSVKGRFTISRDNAKNTVYLQMNSLKPEDTAVYYCAVVYRYRTRSRSYFLPFDYWGQGTQVTVSS | high polyreactivity
33 | QVQLVESGGGLVQAGGSLRLSCAASGFTFDGYGMGWYRHAPGKERELVAVITSGGSTKYADSVKGRFTISRDNAKNTVYLQMNSLKPEDTAVYYCNVVGGRPNPYYDEMDYWGQGPQVTVSS | low polyreactivity
34 | QVQLVESGGGLVQAGGSLRLSCAASGFTFDINTMGWYRQAPGKERELVAAITYSGGSTYYADSVKGRFTISRDKAKNTVYLQMNSLKPEDTAVYYCATTWYFVASWYVAIYDYWGQGTQVTVSS | low polyreactivity
35 | QVQLVESGGGLVQAGGSLRLSCAASGFTFDIYAMGWYRQAPGKEWELVAAITSGGITNYADSVKGRFTISRDNAKNTVYLQMNSLKPEDTAVYYCAADEYLGFYVSHTDWTKYDYWGQGTQVTVSS | low polyreactivity
36 | QVQLVESGGGLVQAGGSLRLSCAASGFTFDKNAMGWYRQAPGKERELVAAINIGSTYYADSVKGRFTISRDNAKNTVYLQMNSLKPEDTAVYYCAKEVPSGYWVNYYYWGQGTQVTVSS | low polyreactivity
37 | QVQLVESGGGLVQAGGSLRLSCAASGFTFDKNAMGWYRQAPGKERELVAAITKSGGSTYYADSVKGRFTISRDNAKNTVYLQMNSLKPEETAVYYCNAPPWSRYYYDLLRHDYWGQGTQVTVSS | low polyreactivity
38 | QVQLVESGGGLVQAGGSLRLSCAASGFTFDLYAKGWYRQAPGKERELVAVITRGGSTYYADSVKGRFTISRDNAKNTVYLQMNSLKPEDTAVYYCAKYSIIDWWGGEDYWGQGTQVTVSS | high polyreactivity
39 | QVQLVESGGGLVQAGGSLRLSCAASGFTFDRNAMGWYRQAPGKERGLVAAISSSGGRTYYADSVKGRFTISRDNAKNTVYLQMNSLKPEDTAVYYCAAVFFSRPSAYGSRYYWGQGTQVTVSS | high polyreactivity
40 | QVQLVESGGGLVQAGGSLRLSCAASGFTFDRNAMGWYRQATWKERELVAAITWTGGSTYYADSVKGRFTISRDNAKNTVYLQMNSLKPEDTAVYYCAATLPYSRGWFYYWGQGTQVTVSS | high polyreactivity
41 | QVQLVESGGGLVQAGGSLRLSCAASGFTFDRYAMGWYRQAPGKERELVAAISRSGASTYYADSVKGRFTISRDNAKNTVYLQMNSLKPDDTAVYYCAAKQRTKGDYWGQGTQVTVSS | high polyreactivity
